T1: (His)6-RcsB (Escherichia coli, UniProt P0DMC7 1-216)
T1 sequence: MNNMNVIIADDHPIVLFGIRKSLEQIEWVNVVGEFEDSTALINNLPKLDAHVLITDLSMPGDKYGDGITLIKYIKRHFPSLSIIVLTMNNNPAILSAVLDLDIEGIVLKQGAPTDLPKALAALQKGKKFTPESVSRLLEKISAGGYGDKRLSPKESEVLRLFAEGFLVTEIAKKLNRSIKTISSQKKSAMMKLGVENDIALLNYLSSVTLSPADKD

T2: (His)6-RcsB (Escherichia coli, UniProt P0DMC7 1-216)
T2 sequence: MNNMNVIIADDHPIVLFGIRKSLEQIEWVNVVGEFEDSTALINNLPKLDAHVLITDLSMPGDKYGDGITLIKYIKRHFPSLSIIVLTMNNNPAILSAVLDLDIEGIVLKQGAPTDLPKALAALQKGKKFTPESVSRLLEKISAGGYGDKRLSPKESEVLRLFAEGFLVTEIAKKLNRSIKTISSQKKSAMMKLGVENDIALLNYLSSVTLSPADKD

T3: MBP-RcsB (Escherichia coli (MG1655 strain), UniProt P0DMC7 1-216)
T3 sequence: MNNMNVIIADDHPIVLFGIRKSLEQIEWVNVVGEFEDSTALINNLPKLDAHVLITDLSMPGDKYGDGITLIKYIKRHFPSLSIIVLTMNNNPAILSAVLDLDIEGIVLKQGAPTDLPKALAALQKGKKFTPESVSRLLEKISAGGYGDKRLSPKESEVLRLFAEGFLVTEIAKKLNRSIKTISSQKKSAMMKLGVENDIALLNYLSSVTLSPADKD


Tests used:
(His)6-RcsB [1] = biological target: T1, (His)6-RcsB; assay: EMSA
(His)6-RcsB [2] = biological target: T2, (His)6-RcsB; assay: native gel or EMSA
MBP-RcsB = biological target: T3, MBP-RcsB; assay: native gel or EMSA
[3] = biological target: the molecule itself

Binder	binding result ((His)6-RcsB [1])	binding result ((His)6-RcsB [2])	binding result (MBP-RcsB)	stoichiometry N [3]
gadA promoter -101 to +24 (dsDNA) DNA 1: GTTTATATTATAAAAAGTCGTTTTTCTGCTTAGGATTTTGTTATTTAAATTAAGCCTGTAATGCCTTGCTTCCATTGCGGATAAATCCTACTTTTTTATTGCCTTCAAATAAATTTAAGGAGTTC DNA 2: GAACTCCTTAAATTTATTTGAAGGCAATAAAAAAGTAGGATTTATCCGCAATGGAAGCAAGGCATTACAGGCTTAATTTAAATAACAAAATCCTAAGCAGAAAAACGACTTTTTATAATATAAAC	binds	–	–	–
MBP-GadE (natural protein) MIFLMTKDSFLLQGFWQLKDNHEMIKINSLSEIKKVGNKPFKVIIDTYHNHILDEEAIKFLEKLDAERIIVLAPYHISKLKAKAPIYFVSRKESIKNLLEITYGKHLPHKNSQLCFSHNQFKIMQLILKNKNESNITSTLNISQQTLKIQKFNIMYKLKLRRMSDIVTLGITSYF	–	binds	binds	2
(His)6-GadE (natural protein) MIFLMTKDSFLLQGFWQLKDNHEMIKINSLSEIKKVGNKPFKVIIDTYHNHILDEEAIKFLEKLDAERIIVLAPYHISKLKAKAPIYFVSRKESIKNLLEITYGKHLPHKNSQLCFSHNQFKIMQLILKNKNESNITSTLNISQQTLKIQKFNIMYKLKLRRMSDIVTLGITSYF	–	binds	binds	–

Reference: article PMC2887963 (Nucleic Acids Research, 2010)
